Measured values taken from US20260242448A1 (INSTITUTE OF MICROBIOLOGY CHINESE ACADEMY OF SCIENCES, published 2026).

B1: monoclonal antibody L4.65 (antibody, V domains shown)
VH: QITLKESGPTLVKPTQTLTLTCTFSGFSLSTSGVGVAWIRQPPGKALEWLALIYWDNDKRSSPSLNNRLTITKDTSKNQVVLTMTNMDPEDTATYYCAHFFSHYDSSNYYYGSWFDPWGQGTLVTVSS
VL: EIVLTQSPGTLSLSPGERATLSCRASQSFDSRYLGWYQQKSGQAPRLLIYGASSRATGIPDRFSGSGSGTDFTLTISRLEPEDFAVYYCQQFGDSPFTFGQGTKLEIKR
notes: also called monoclonal antibody 65; 65IgG
B2: monoclonal antibody CoV56 (antibody, V domains shown)
VH: EVQLVESGGGVVQPGGSLRLSCAVSGFTFDDYAMHWVRQAPGKGLDWVSLISGDGSYTYYADSVKGRFTISRDSSKNSLYLQMNSLRTEDTALYYCAKAQTPTLWWLQDAFDIWGQGTMVTVSS
VL: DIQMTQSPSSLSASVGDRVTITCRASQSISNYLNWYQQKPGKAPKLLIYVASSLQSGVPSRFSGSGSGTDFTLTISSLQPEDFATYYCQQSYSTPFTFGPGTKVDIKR
notes: also called monoclonal antibody 56; 56IgG

Tests used:
[1] = molecular target: T1, SARS-CoV-2 (BA.5) Spike RBD (SARS-CoV-2 BA.5 strain); assay: ELISA on plate-coated RBD (1 µg/mL), HRP anti-human Fc detection, OD450
T1 construct: domain: RBD; also called BA.5 RBD

[2] = molecular target: T2, RBD of the S protein of the BA.2.12.1 strain (SARS-CoV-2 BA.2.12.1 strain); assay: as above
T2 construct: domain: RBD; also called BA.2.12.1 RBD

[3] = molecular target: T3, S protein of the SARS-CoV-2 XBB.1.5 strain on pseudo-virus (SARS-CoV-2 XBB.1.5 strain); assay: cell-based or functional assay
[4] = molecular target: S protein of the SARS-CoV-2 XBB.1.16 strain on pseudo-virus (SARS-CoV-2 XBB.1.16 strain); assay: cell-based or functional assay
[5] = molecular target: S protein of the SARS-CoV-2 BA.1.1 strain on pseudo-virus (SARS-CoV-2 BA.1.1 strain); assay: cell-based or functional assay
[6] = molecular target: T4, S protein of the SARS-CoV-2 BA.4/5 strains on pseudo-virus (SARS-CoV-2 BA.4/5 strain); assay: cell-based or functional assay
[7] = molecular target: T5, S protein of the SARS-CoV-2 BQ.1 strain on pseudo-virus (SARS-CoV-2 BQ.1 strain); assay: cell-based or functional assay
[8] = molecular target: T6, S protein of the SARS-CoV-2 BF.7 strain on pseudo-virus (SARS-CoV-2 BF.7 strain); assay: cell-based or functional assay
[9] = molecular target: T7, S protein of the SARS-CoV-2 BQ.1.1 strain on pseudo-virus (SARS-CoV-2 BQ.1.1 strain); assay: cell-based or functional assay
[10] = molecular target: S protein of the SARS-CoV-2 BA.3 strain on pseudo-virus (SARS-CoV-2 BA.3 strain); assay: cell-based or functional assay
[11] = molecular target: S protein of the SARS-CoV-2 BA.2 strain on pseudo-virus (SARS-CoV-2 BA.2 strain); assay: cell-based or functional assay
[12] = molecular target: T8, S protein of the SARS-CoV-2 XBB strain on pseudo-virus (SARS-CoV-2 XBB strain); assay: cell-based or functional assay
[13] = molecular target: T9, S protein of the SARS-CoV-2 BA.2.75 strain on pseudo-virus (SARS-CoV-2 BA.2.75 strain); assay: cell-based or functional assay
[14] = molecular target: T10, S protein of the SARS-CoV-2 BA.1 strain on pseudo-virus (SARS-CoV-2 BA.1 strain); assay: cell-based or functional assay
[15] = molecular target: T11, RBD of the S protein of the BA.1.1 strain (SARS-CoV-2 BA.1.1 strain); assay: ELISA on plate-coated RBD (1 µg/mL), HRP anti-human Fc detection, OD450
T11 construct: domain: RBD; also called BA.1.1 RBD

[16] = molecular target: T3, S protein of the SARS-CoV-2 XBB.1.5 …; assay: cell-based or functional assay; remark: listed apart in the source
[17] = molecular target: T4, S protein of the SARS-CoV-2 BA.4/5 …; assay: cell-based or functional assay; remark: listed apart in the source
[18] = molecular target: T5, S protein of the SARS-CoV-2 BQ.1 strain …; assay: cell-based or functional assay; remark: listed apart in the source
[19] = molecular target: S protein of the SARS-CoV-2 Delta strain on pseudo-virus (SARS-CoV-2 Delta strain); assay: cell-based or functional assay
[20] = molecular target: T6, S protein of the SARS-CoV-2 BF.7 strain …; assay: cell-based or functional assay; remark: listed apart in the source
[21] = molecular target: T7, S protein of the SARS-CoV-2 BQ.1.1 …; assay: cell-based or functional assay; remark: listed apart in the source
[22] = molecular target: T8, S protein of the SARS-CoV-2 XBB strain …; assay: cell-based or functional assay; remark: listed apart in the source
[23] = molecular target: T9, S protein of the SARS-CoV-2 BA.2.75 …; assay: cell-based or functional assay; remark: listed apart in the source
[24] = molecular target: T10, S protein of the SARS-CoV-2 BA.1 strain …; assay: cell-based or functional assay; remark: listed apart in the source

Binder | EC50 [1] | EC50 [2] | Neutralization Effects (IC50) against SARS-CoV-2 pseudo-viruses [3] | Neutralization Effects (IC50) against SARS-CoV-2 pseudo-viruses [4] | Neutralization Effects (IC50) against SARS-CoV-2 pseudo-viruses [5] | Neutralization Effects (IC50) against SARS-CoV-2 pseudo-viruses [6] | Neutralization Effects (IC50) against SARS-CoV-2 pseudo-viruses [7] | Neutralization Effects (IC50) against SARS-CoV-2 pseudo-viruses [8] | Neutralization Effects (IC50) against SARS-CoV-2 pseudo-viruses [9] | Neutralization Effects (IC50) against SARS-CoV-2 pseudo-viruses [10] | Neutralization Effects (IC50) against SARS-CoV-2 pseudo-viruses [11] | Neutralization Effects (IC50) against SARS-CoV-2 pseudo-viruses [12] | Neutralization Effects (IC50) against SARS-CoV-2 pseudo-viruses [13] | Neutralization Effects (IC50) against SARS-CoV-2 pseudo-viruses [14] | EC50 [15] | Neutralization activity (IC50) against pseudo-virus [16] | Neutralization activity (IC50) against pseudo-virus [17] | Neutralization activity (IC50) against pseudo-virus [18] | Neutralization activity (IC50) against pseudo-virus [19] | Neutralization activity (IC50) against pseudo-virus [20] | further results
B1 | 105 pM | 64.1 pM | 0.0137 µg/mL | 0.0103 µg/mL | 0.00028 µg/mL | 0.000377 µg/mL | 2.09 µg/mL | 0.000446 µg/mL | 4.58 µg/mL | 0.00044 µg/mL | 0.00039 µg/mL | 0.00335 µg/mL | 0.00194 µg/mL | 0.000394 µg/mL | 5.92 pM | 0.0541 µg/mL | 0.00138 µg/mL | > 2 µg/mL | 0.00252 µg/mL | 0.00212 µg/mL | Neutralization activity (IC50) against pseudo-virus [21]: > 2 µg/mL; Neutralization activity (IC50) against pseudo-virus [22]: 0.0214 µg/mL; Neutralization activity (IC50) against pseudo-virus [23]: 0.0112 µg/mL; Neutralization activity (IC50) against pseudo-virus [24]: 0.00135 µg/mL
B2 | 167 pM | 83.9 pM | 11.8 µg/mL | 21.7 µg/mL | 10.8 µg/mL | 7.53 µg/mL | 19.6 µg/mL | 11.7 µg/mL | 15.9 µg/mL | 18.5 µg/mL | 8.32 µg/mL | 15.9 µg/mL | 58.8 µg/mL | 14.8 µg/mL | 45.4 pM | > 2 µg/mL | > 2 µg/mL | > 2 µg/mL | > 2 µg/mL | > 2 µg/mL | Neutralization activity (IC50) against pseudo-virus [21]: > 2 µg/mL; Neutralization activity (IC50) against pseudo-virus [22]: > 2 µg/mL; Neutralization activity (IC50) against pseudo-virus [23]: > 2 µg/mL; Neutralization activity (IC50) against pseudo-virus [24]: > 2 µg/mL
